A word on the Kd: it is the free concentration of one partner at which half of the binding sites on the other are occupied at equilibrium, for simple one-to-one binding. What is called koff is a measure of how fast the partners let go of each other. As usually defined, the kon is the second-order rate constant of association.

Experimental findings from patent publication US20200010571A1 (Janssen / Centocor, published 2020) are described below.

One test deals with T1, rat IL-17A (rat, UniProt Q61453 18-150).
T1 chain: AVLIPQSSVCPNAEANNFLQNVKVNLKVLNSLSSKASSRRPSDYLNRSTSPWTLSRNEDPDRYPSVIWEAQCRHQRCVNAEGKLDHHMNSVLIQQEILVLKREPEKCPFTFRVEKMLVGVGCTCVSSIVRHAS
In words: SPR (Biacore 3000).

A further test has as its target T2, mouse IL-17A (mouse, UniProt Q62386 26-158).
T2 sequence: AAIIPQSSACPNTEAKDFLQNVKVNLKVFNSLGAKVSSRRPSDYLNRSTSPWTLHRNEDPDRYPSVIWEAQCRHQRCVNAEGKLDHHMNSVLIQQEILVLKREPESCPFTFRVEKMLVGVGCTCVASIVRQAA
Kind of test: SPR (Biacore 3000). In general terms: SPR reads the build-up and loss of mass on a sensor chip optically.

In test [1] the target is T3, human IL-17A (recombinant) (human, UniProt Q16552 24-155).
T3 construct: Biotinylated in the IL-17RA ELISA; also called rhIL-17A
Kind of test: SPR (Biacore 3000), mAb captured by anti-IgG Fc, antigen in solution, 25 C, 1:1 Langmuir.
Experimental: (§1) The experiments were performed using a Biacore 3000 and all experiments were performed in PBS (with 100 μg/mL BSA, and 0.01% P20) at 25° C. The antibodies were captured (75-200 response units) onto the sensor chip surface using an anti-IgG Fcγ antibody (16,000RU). Capture of the parental mAb or bispecific mAb was followed by injection of antigens in solution (4 serial dilutions of antigen). The association was monitored for 3 minutes in all experiments (150 μL injected at 50 μL/min). The dissociation was monitored for 20 minutes to 2 hours depending on the Off-rate. Regeneration of the sensor surface was performed with a 9 second injection of 100 mM H₃PO₄. The collected data were processed and fitted to a 1:1 Langmuir binding model. The result for each mAb was reported in the format of Ka (On-rate), Kd (Off-rate) and KD (equilibrium dissociation constant).

Another test has as its target T4, cynomolgus IL-17A (cynomolgus, UniProt Q16552 24-155 (human entry), limits assumed).
T4 construct: also called Cyno IL-17A
T4 chain: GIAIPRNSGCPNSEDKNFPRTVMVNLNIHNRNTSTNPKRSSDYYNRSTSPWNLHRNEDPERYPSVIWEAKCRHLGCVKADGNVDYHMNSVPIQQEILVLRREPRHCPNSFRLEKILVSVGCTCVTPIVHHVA
In words: SPR (Biacore 3000), mAb captured by anti-IgG Fc, antigen in solution, 1:1 Langmuir.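 Also: run in PBS containing BSA and P20 at 25 °C, antigen injected at four dilutions, 3 min association, dissociation followed 20 min to 2 h, two independent experiments.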

Experimental for cynomolgus IL-17A: as §1
(§2) The experimental procedure was similar to measuring affinity to human antigens.
(§3) The parameters reported were obtained from two independent experiments.
Experimental for mouse IL-17A: as §1, §2, §3
Experimental for rat IL-17A: as §1, §2, §3

B1: mAb 6785 (original parental anti-IL-17A mAb) (antibody, V domains shown)
VH: QVQLLESGGGLVQPGGSLRLSCAASGFTFSSYAMSWVRQAPGKGLEWVSTISLTSGFTYYADSVKGRFTISRDNSKNTLYLQMNSLRAEDTAVYYCARQLTLDVWGQGTLVTVSS
VL: QSVLTQPPSVSVAPGQTARISCSGDNLGDKYANWYQQKPGQAPVLVIYDDIDRPSGIPERFSGSNSGNTATLTISGTQAEDEADYYCGSYDFFLGMIVFGGGTKLTVL
Consider B1, for which the binding result with rat IL-17A was “binds”. Besides, the binding result with mouse IL-17A was “binds”. In addition, in test [1], the equilibrium dissociation constant (Kd) worked out at 0.0309 nM, the koff is 4.79e-05 s⁻¹ and the on-rate constant (kon) was determined as 1.55e+06 M⁻¹ s⁻¹. For the same molecule, in the test with cynomolgus IL-17A, the Kd turned out to be 0.0286 nM, the koff was 3.68e-05 s⁻¹ and the kon worked out at 1.29e+06 M⁻¹ s⁻¹.
